This passage reports fold of myc-xMELK co-immunoprecipitated (myc/FLAG ratio) compared to full length FLAG-RACK1 results from article PMC3798187.

The target in assay [1] is FLAG-RACK1 WD1–4 (human RACK1 in which WD40 domains 5 to 7 have been deleted) (human). As to the kind of experiment: co-IP; anti-FLAG immunoprecipitation (protein A magnetic beads) from extracts of mRNA-injected Xenopus embryos in EB buffer, 1 h at 4°C; Western blots with anti-xMELK, anti-RACK1, anti-FLAG or anti-myc antibodies; uninjected embryos as control.
For assay [2], the target named is FLAG-RACK1 WD5–7 (human RACK1 in which WD40 domains 1 to 4 have been deleted) (human). Described as above.

For “myc-tagged xMELK (from UniProt Q91821 1-651) (enzyme)”, the fold of myc-xMELK co-immunoprecipitated (myc/FLAG ratio) compared to full length FLAG-RACK1 in assay [1] was 2.1 times; in assay [2], 0.7 times.
